Data reported in the supplement of paper PMC9170038.

Test system: MS2 coat protein
Assay: apparent KD of MS2 coat protein; designed switch direction (-1 OFF switch, 1 ON switch): -1; higher = weaker reporter binding
In short: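 An oligonucleotide input, 200 uM small-molecule ligand, or no input was present during titration of SNAP-549-labelled MS2 coat protein, which was doubled from 0.7 or 1.5 nM to 3 µM. Designed RNA switches had been transcribed on Illumina chips by stalled E. coli RNA polymerase. Apparent KD per design is the median over clusters of curves fitted to normalised cluster fluorescence.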

[1] = input ligand: microRNA oligo, concentration not stated
[2] = Eterna round: R95, input ligand: microRNA oligo, concentration not stated
[3] = Eterna round: R95, input ligand: FMN 200 uM
[4] = Eterna round: R95, input ligand: none

Row | Sequence | apparent KD of MS2 coat protein (input ligand: FMN 200 uM) [nM] | apparent KD of MS2 coat protein (input ligand: none) [nM] | apparent KD of MS2 coat protein [2] [nM] | further results
1 | UUACGAUUGCUAGGAUAUCCACGAAUAGCUCCGGGAGAAGGAGCUCUCGUACAUGAGGAUCACCCAUGUCAGGGUGUCCAAUUU [Onraedin] (Eterna round: R96, puzzle: Exclusion NG 1) | 38.1 | 40.7 |  | apparent KD of MS2 coat protein [1]: 21.4 nM
2 | CCCUCACAUGAGGAUCACCCAUGUCAGGAUAUUCGAACGGUGUGUUUUUGGCCAGUUGGAAGAAGGGACAUAAA [Riinesbe] (puzzle: Exclusion 1) |  |  | 36.2 | 
3 | GAUUAUGCAAGCUUUUGGGACAUGAGGAUCACCCAUGUUCGUCUUAUUGAUCUAGGUACGCUGACGUACCUAGAUCU [JL-sv1-2.32 Brourd mod] (Eterna round: R96, puzzle: Sensor v3, turn-off variant 1) | 14.8 | 17.2 |  | apparent KD of MS2 coat protein [1]: 52.1 nM
4 | UCAAUGCGAGGAUAUACGCACAAUUACAUGAGGAUCACCCAUGUCAUGAACUUUGGUAAGGUAGAAGGCGCUCCGU [Eternabot (L1) Solution 13] (Eterna round: R97, puzzle: Exclusion 5) | 32.4 | 41 |  | 
5 | GUAAUUAAUGUAGGAUAUGCAAGGCGAAACAUGAGAGAAGGCCAUGUGGAUCACCCAUGUAAUGCGGUCUGCGUACAGAUCGCU [salish99_ExNG1_r4_003] (Eterna round: R96, puzzle: Exclusion NG 1) | 38 | 65.5 |  | apparent KD of MS2 coat protein [1]: 16.1 nM
6 | AAGAAACAUGAGGAUCACCCAUGUGAGGAUAUGGCCCGCCCGGCGUGAGCUGGUUUUGUCAGAAGGCGCAAAGG [salish99_ex1_r4_018] (Eterna round: R97, puzzle: Exclusion 1) | 53.9 | 50.8 |  | 
7 | GGUGCGUAUGUGAGGAUAUGCUGGUCCUUGGAUCGGCAGAAGGUACAUGAGGAUCACCCAUGUGGUGUCGUUCU [salish99_Bmod_ex4_105] (puzzle: Brourd's mod of Exclusion 4) |  |  | 232 | 
8 | CUCUUGUCAGGAUAUUAUGGACGAUAGCAGGGCUACGUCAGUGAGAAGGGACAUGAGGAUCACCCAUGUAAAAU [Onatbezaes] (puzzle: Exclusion 4) |  |  | 77.1 | 
9 | GUAUAUAGUGUGAGGAUAUGCUGGUCCUUGGAUCAGCAGAAGGCACAUGAGGAUCACCCAUGUAGUUUAUUUUG [Mat - Exclusion 4 - JL Mod - D7] (puzzle: Brourd's mod of Exclusion 4) |  |  | 16.2 | 
10 | GAUUGACAUGAGGAUCACCCAUGUGAGGAUAUCGUCUGGUACGUGUUGGCUGGCAUCUCGAGAAGGCGCAUAGG [Exclusion 1 V56] (puzzle: Exclusion 1) |  |  | 59.4 | apparent KD of MS2 coat protein [3]: 103 nM; apparent KD of MS2 coat protein [4]: 76.4 nM
11 | UCACGGGUUUGAGGAUAUAUUAUUAUUAUUUAAAUAGAAGGCAAAGAAAUUGUUAUUUCACUAUACAUGAGGAUCACCCAUGUU [JR_ExcNG1_Sub088] (Eterna round: R96, puzzle: Exclusion NG 1) |  |  |  | apparent KD of MS2 coat protein [1]: 19.5 nM
12 | CAGUACUGAGGAUAUACAUGAGGAUCACCCAUGUCCCAAAAGUAGGAUACUACUAUUAGUAGAAGGCAGUACUG [Fiskers Ex 3 828 mod 25] (puzzle: Exclusion 3) |  |  | 38.9 | 
13 | CAUGAGGUAGGAUAUACGAUAAUAUAGGGUAGAUAUAUAACACAUGAGGAUCACCCAUGUAGAAGGACCAGUAG [Mat - Exclusion 2 - Mod of my Tesla design - D67] (puzzle: Exclusion 2) |  |  | 29.8 | 
14 | CCUCUACAUGAGGAUCACCCAUGUGAGGAUAUCAAAGCCGAAGCAAAUCUCCGGCCCAUGAGAAGGUGCAUGGA [EX1 A.9] (Eterna round: R97, puzzle: Exclusion 1) | 87.4 | 19.5 |  | 
15 | GUCCGGCAUGUAGGAUAUGGAUCCGAUUAGGAUUUAGAAGGACAUGAGGAUCACCCAUGUGCAUUUAAUUAGUCAUUACCGGAU [EXclNG1-LROPPY05] (Eterna round: R96, puzzle: Exclusion NG 1) | 17.4 | 17.9 |  | apparent KD of MS2 coat protein [1]: 13.6 nM
16 | CCUUUGUCAGGAUAUCAGAACACGCUCCUAGGGAGCGCAAAUGAGAAGGGACAUGAGGAUCACCCAUGUAAAGA [Arisesat] (puzzle: Exclusion 4) |  |  | 41.6 | apparent KD of MS2 coat protein [3]: 318 nM; apparent KD of MS2 coat protein [4]: 54.8 nM
17 | UUAAAUCAUGUAGGAUAUGCUUUGCGAAGCGAGGCAGAAGGACAUGAGGAUCACCCAUGUGCUAGCGUCCGCGUACGGAUGCAA [Mat - Exclusion NG 1 - Mod of JL - D61] (Eterna round: R96, puzzle: Exclusion NG 1) | 166 | 83 |  | apparent KD of MS2 coat protein [1]: 57.3 nM
18 | GCACGGAUGGUAGGAUAUCUGUGCGAUUAGCUCAGAGAAGGACCACAUGAGGAUCACCCAUGUACCUCAAUUAACCUUCCGUGC [Eli exng1 - 021] (Eterna round: R96, puzzle: Exclusion NG 1) | 16.9 | 17.6 |  | apparent KD of MS2 coat protein [1]: 21 nM
19 | GUCUUGAUAGGAUAUACAUGAGGAUCACCCAUGUCCCACCCGUUACCUCUGACCCUAUGUAGAAGGAUCGUCUG [Exy#18] (Eterna round: R97, puzzle: Exclusion 3) | 30.4 | 35.5 |  | 

Row | Sequence | apparent KD of MS2 coat protein (input ligand: FMN 200 uM) [nM] | apparent KD of MS2 coat protein (input ligand: none) [nM] | apparent KD of MS2 coat protein [2] [nM] | further results
20 | AAGCGCGUAGGAUAUACAUGAGGAUCACCCAUGUGAGGAGGGAGUUGGAGGUGUGGAAGUAGAAGGACGGAGUG [JR_Exclu3_Sub079] (puzzle: Exclusion 3) |  |  | 26.9 | 
21 | GCUGGGUCAGGAUAUACGAGAUCGAAAGAUCGAAGAUCCGUACAUGAGGAUCACCCAUGUAGAAGGGACUGGGC [ChP 11-04-2015 #7] (puzzle: Exclusion 2) |  |  | 19.5 | 
22 | CCGGAAGUACAGGAUAUAGGAGUCGAUAGACUCCUAGAAGGGUAUACAUGAGGAUCACCCAUGUGUCCUACCGG [Fiskers Ex 6 - 71] (puzzle: Exclusion 6) |  |  | 23.6 | 
23 | CAGGUGUUAGGAUAUCGGAGAUCGAGACCGACGGGAUGAGCCGAGAAGGAACAUGAGGAUCACCCAUGUAGGUG [JR_Exclu4_Sub034] (Eterna round: R96, puzzle: Exclusion 4) |  |  |  | apparent KD of MS2 coat protein [1]: 304 nM
24 | AAGACCAGAGGAUAUCAGACGCGGCACAUGAGGAUCACCCAUGUAUUCCCGUCUGCCGACUGAGAAGGUUGGAAAG [Xeusbi] (puzzle: Exclusion 5) |  |  | 9.41 | 
25 | UUUGUUUAUGUGAGGAUAUACUGUUUGUUUUGUUUGUAGAAGGUACAUGAGGAUCACCCAUGUUUUGUUUUUUU [JR_BME4_Sub033] (puzzle: Brourd's mod of Exclusion 4) |  |  | 21 | 
26 | CGGAUGUGAGGAUAUACAUGAGGAUCACCCAUGUGAGCCAGCUAGCUGACUGGCUCGUGUAGAAGGCACGUCUG [JL-ex3-2.16 Brourd mod] (puzzle: Exclusion 3) |  |  | 14.2 | 
27 | AGUAUGCGGCAGGAUAUCCAUCCGCGGUGAGGUGGAGAAGGGCUGACAUGAGGAUCACCCAUGUGCGUCCUGUA [salish99_ex6_r4_027] (Eterna round: R97, puzzle: Exclusion 6) | 29.4 | 21 |  | 
28 | GAAAAGGUAGGAUAUACGAAAAAAAAGGGUAAAAAAAAAACACAUGAGGAUCACCCAUGUAGAAGGACCAAAAG [salish99_ex2_r3_062] (puzzle: Exclusion 2) |  |  | 32.4 | apparent KD of MS2 coat protein [3]: 44.4 nM; apparent KD of MS2 coat protein [4]: 34 nM
29 | AAUAAUAAGGAGGAUAUCGUAACCGAAAGGUUACGAGAAGGCCUAACAUGAGGAUCACCCAUGUUCCUCAAUAA [Mat - Exclusion 6 - Eli Mod - D56] (puzzle: Exclusion 6) |  |  | 186 | apparent KD of MS2 coat protein [3]: 468 nM; apparent KD of MS2 coat protein [4]: 389 nM
30 | AUAAUGUCAGGAUAUCAGUCGUACAGCCUCGGCUGUACGACUGAGAAGGGACAUGAGGAUCACCCAUGUGGUCA [E4/6-A2] (Eterna round: R97, puzzle: Exclusion 4) | 42.4 | 155 |  | 
31 | UCGUUUUUUGAGGAUAUGCGACGUUUUUUCGUCGUAGAAGGCGAUACAUGAGGAUCACCCAUGUUUAUGGGCAU [LRO-Ex6-15] (puzzle: Exclusion 6) |  |  | 148 | 
32 | ACCUCACAUGAGGAUCACCCAUGUCAGGAUAUCUGAUGUAGUCCCGUUCCGGACGCUGAGAGAAGGGACGUUGA [EX1 #39] (Eterna round: R97, puzzle: Exclusion 1) | 38.9 | 51.6 |  | 
33 | GCACUGCGAGGAUAUACAUGAGGAUCACCCAUGUGUCGGCAGCCAUGUCAGUACAAAUGUAGAAGGCGCGUAAA [EX3 #54] (Eterna round: R97, puzzle: Exclusion 3) | 87.5 | 28.8 |  | 
34 | GCCUCACAUGAGGAUCACCCAUGUCAGGAUAUAGGAGACGGUAGCUUUGCUGCCUUCGCUAGAAGGGACUGGCU (puzzle: Exclusion 1) |  |  | 29.7 | 
35 | AGUAACCGUCACGAAAGUGAUGGUUACACAGGCAAAUGUACAUGAGGAUCACCCAUGUCCUCAAUUGCUCGUCUUAU [Sensor 3 - 53] (puzzle: Sensor v3, turn-off variant 2) |  |  | 181 | apparent KD of MS2 coat protein [3]: 115 nM; apparent KD of MS2 coat protein [4]: 120 nM
36 | AUCGUGUGAGGAUAUCGAUUAUGGAGGUCUAGGUCCAUACGCGAGAAGGCACAUGAGGAUCACCCAUGUAAUGG [jl-ex4-4.31 ViennaUCT mod] (Eterna round: R97, puzzle: Exclusion 4) | 126 | 309 |  | 
37 | GAUUAACAUGAGGAUCACCCAUGUGAGGAUAUUGACUUGCUCACUUUCCGAUUCGAGUCGAGAAGGCGCAUCUU [1986#117] (Eterna round: R97, puzzle: Exclusion 1) | 23.9 | 21.9 |  | 
